Biological target: the molecule itself
Test: cryo-EM structure; single-particle cryoEM of purified full-length T. terrestris Sec7 with 2 mM fluorinated fos-choline 8; C2 symmetry for the dimer consensus map (5.3 Å), focused monomer map 3.7 Å, composite dimer model

B1: full-length Sec7 from Thielavia terrestris (natural protein)
chain: MEQKLISEEDLNSAVDHHHHHHRIPGLINSSLKFVVSSLDIIAAQAGRNKQLAELAEKALAAIKENDQQLPDPEVVFAPLQLATKSGTIPLTTTALDCIGKLISYSYFSAPSSSATQDGTEQTPLIERAIDTICDCFQGETTLVEIQLQIVKSLLAAVLNDKIIVHGAGLLKAVRQVYNIFLLSRSTANQQVAQGTLTQMVGTVFERVKTRLHMKEARANLGRLKASRSSLAVDRSDDQDSQAGKVDGEDATVETVSDATPSESVDKAGGGKLTLKDLEHRKSFDDSHMGDGPTMVSQVKPMKKASRSVSEQSLQESPQDETPESLDAEDEAYIRDAYLVFRSFCNLSTKILPPDQLYDLRGQPMRSKLISLHLIHTLLNNHITVFTSPLCTIRNTKNNEPTNFLQAIKYYLCLSITRNGASSVDRVFDICCEIFWLMLKYMRSSFKNEIEVFLNEIYLALLARRNAPLSQKLTFVGILKRLCEDPRALVELYLNYDCNQNVDNIFQTIVEDLSRFATASVPITPTQEQQYEESRSKSATAGEWQIKSVLPPPLSVALIATNHEADTELPKEYVMKRTALDSLVETLRSLVHWSQPGRPELNGASGDVQRRTSSDDLGDSIDPSMSETASRMEVPIAPATPVIDDDPDQLEKEKARKTAMTNAIKVFNFKPKHGIKLLIKEGFIPSDKPEDIARFLLREERLDKAQIGEYLGEGDQKNVDIMHAFVDMMDFSKKRFVDALREFLQAFRLPGEAQKIDRFMLKFAHRYVTGNPNAFANADTPYVLAYSVIMLNTDLHSSKVVKRMSKAEFIKNNRGINDNADLPDEYLIGIYDDIASNEIVLKSEREAAAAAGTLPAQSTGLAGLGQAFSNVGRDLQREAYVQQSEEISLRSEQLFRDLYRSQRKSATKGGVKFISATSFKHVGPMFDATWMSFFSTLSSLVQKTHNLDVNKLCLEGMKLATKIACLFDLSTPREAFISMLKNTANLNNPREMQAKNVEALKVLLDLAQTEGNYLKESWKDVLLCISQLDRLQLISGGVDESAVPDVSRARFVPPPRTETGESRKSTSSARRTRPRAHTGPQGVSLEIALESRSDEVIKSVDRIFTNTANLSRDAIIHFARALTEVSWDEIKVSGSNDSPRTYSLQKIVEISYYNMTRVRFEWSHIWDVLGEHFNRVGCHANTAIVFFALDSLRQLSMRFMEIEELAGFKFQKDFLKPFEHVMSNSSNVTVKDMVLRCLIQMIQARGENIRSGWRTMFGVFTVAAREPYESIVNLAYENVTQVYKTRFGVVISQGAFTDLIVCLTEFSKNMRFQKKSLQAMETLKSVIPTMLKTPECPLSQHKPTATTASGSESHSKKAAVQQTRTSVEEGFWFPVLFAFHDVLMTGEDLEVRSNALNYFFETLLRYGGDFPPEFWDILWRQQLYPIFMVLRSRPEMTNALNHEELSVWLSTTMIQALRNMITLFTHYFDALEYMLDRFLELLALCICQENDTIARIGSNCLQQLILQNVTKFTAEHWAKIVGAFCELFERTTAYQLFSATTINSTASLSPPPSGLELGGPLSPTSATAPVDGKSLKINGVETNGQTPGAEPANGDADGNGTAAAAADASAPAATPQPQQGPAQQLEEFKPNNPLQQQPVVVTAARRRFFNRIISRCVLQLLMIETVNELFSNDAVYAQIPSAELLRLMALLKKSFLFAKRFNADKDLRMRLWREGFMKQPPNLLKQESGSAATYVAILFRMFGDTAPDRRGSRADVEAALVPLCRDIIRGYTALDDESQHRNIVAWRPVVVDVLEGYAAFPRDAFAAHIRSFYPLVVELLGKDLGQDLRAALLLVLRRVGEVGLGIEGMGSGGAAAAAAAGAAAASSGQGNGNGAAAAAADSERRSSVLSVPSGPRHTPSMDSLNDDPSRQVMGKAEQKLISEEDLNSAVDHHHHHH
- stoichiometry N: 2
